In US20060172374:
Values joined by “and” are separate entries in the source; they are usually repeats but may differ in a detail not shown here. Equal entries are not always repeated.

Tests used:
[1] = target: bovine S100B (Sigma) (UniProt P02638)
[2] = tested on: GST-hMOB1
[3] = tested on: myc-tagged hMOB1
Sequence of myc-tagged hMOB1 (chain, as listed by the source): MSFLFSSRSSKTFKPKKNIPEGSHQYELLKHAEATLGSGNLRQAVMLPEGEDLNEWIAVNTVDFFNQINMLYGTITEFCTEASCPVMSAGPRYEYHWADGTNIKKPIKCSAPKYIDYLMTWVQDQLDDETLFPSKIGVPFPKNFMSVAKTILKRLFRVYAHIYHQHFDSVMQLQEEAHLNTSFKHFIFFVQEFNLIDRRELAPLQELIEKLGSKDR

Sequence of bovine S100B (Sigma) (P02638 2-92): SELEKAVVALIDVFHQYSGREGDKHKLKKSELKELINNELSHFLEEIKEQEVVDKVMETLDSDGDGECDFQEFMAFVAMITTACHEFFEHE
Sequence of GST-NDR2 (chain, as listed by the source): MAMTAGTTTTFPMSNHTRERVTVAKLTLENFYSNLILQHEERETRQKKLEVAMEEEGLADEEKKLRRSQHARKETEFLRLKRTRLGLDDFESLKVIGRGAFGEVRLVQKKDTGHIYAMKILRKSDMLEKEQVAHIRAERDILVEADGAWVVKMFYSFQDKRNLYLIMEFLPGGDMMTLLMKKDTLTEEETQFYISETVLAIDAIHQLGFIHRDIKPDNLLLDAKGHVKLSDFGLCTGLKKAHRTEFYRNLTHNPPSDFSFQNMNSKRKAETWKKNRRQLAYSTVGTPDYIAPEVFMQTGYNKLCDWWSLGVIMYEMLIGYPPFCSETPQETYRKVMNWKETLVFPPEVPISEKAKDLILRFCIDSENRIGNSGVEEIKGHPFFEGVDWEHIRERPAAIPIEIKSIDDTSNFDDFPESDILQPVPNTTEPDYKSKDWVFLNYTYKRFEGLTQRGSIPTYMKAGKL

Substance | autophosphorylation, incorporated 32P (Cerenkov counting), +S100B [1] | specific activity, peptide kinase assay, after autophosphorylation +S100B [1] | further results
GST-NDR1 S281A | 0.028 | 0.952 | 
GST-NDR1 T74A | 0.207 | 7.82 | S100B-mediated increase of phosphorylation of Ser281 and Thr444 (immunoblot with phosphospecific antibodies) [1]: the T74A point mutation abolished the S100B-mediated increase of phosphorylation for both Ser281 and Thr444 residues without affecting the intrinsic NDR1 autophosphorylation
GST-NDR1 T444A | 0.241 | 3.97 | 
GST-NDR1 kinase dead (K118A) | 0.0064 | 0.222 | 
GST-NDR1 wild type | 0.351 | 21.3 | increase in autophosphorylation [1]: an approximate 2-fold increase in autophosphorylation (on both Ser281 and Thr444); increase in kinase activity [1]: about a 5-fold increase in kinase activity; phosphorylation on Ser281 and Thr444 (immunoblot with phosphospecific antibodies) [1]: Ca2+/S100B was found to enhance phosphorylation on both Ser281 and Thr444
GST-NDR2 |  |  | rate of NDR2 autophosphorylation [1]: increases the rate of NDR2 autophosphorylation by ˜2-fold after 4 hours of incubation; specific NDR activity [1]: stimulates the specific NDR activity in a concentration dependent manner up to ˜4-fold
HA-tagged NDR1 wild type |  |  | NDR autophosphorylation activity (32P, SDS PAGE, phosphoimager) [2]: Addition of GST-hMOB1 to HA-NDR kinase reactions stimulated NDR autophosphorylation activity; OA stimulated NDR kinase activity (peptide kinase assay of 12CA5 immunoprecipitates) [3]: 2 fold and 3 fold
